B1: Atg32^SE (Atg32^1-376 with the phosphomimetic mutation S114E) (domain or fragment, yeast, UniProt P40458 1-376, looked up)
chain: MVLEYQQREGKGSSSKSMPPDSSSTTIHTCSEAQTGEDKGLLDPHLSVLELLSKTGHSPSPMGQNLVTSIDISGNHNVNDSISGSWQAIQPLDLGASFIPERCSSQTTNGSILESSDTSEEEQELLQAPAADIINIIKQGQEGANVVSPSHPFKQLQKIISLPLPGKEKTPFNEQDDDGDEDEAFEEDSVTITKSLTSSTNSFVMPKLSLTQKNPVFRLLILGRTGSSFYQSIPKEYQSLFELPKYHDSATFPQYTGIVIIFQELREMVSLLNRIVQYSQGKPVIPICQPGQVIQVKNVLKSFLRNKLVKLLFPPVVVTNKRDLKKMFQRLQDLSLEYGEDVNEEDNDDEAIHTKSRSYCRNKKAENSKKKSPKSN
modifications: PacificBlue label in the GUV experiment; Sulfo-LC-SDA conjugated to primary amines in the cross-linking experiment
notes: Atg32, mitochondrial cargo receptor, yeast; N-terminal cytoplasmic domain, residues 1-376; also called Atg32^1-376,SE; Sulfo-LC-Atg32^SE
B2: recombinant purified Atg11 (Atg11-His6) (natural protein, yeast)
chain: GPMADADEYSTAPTQQEITPLQTTATIINAISGECITTNVDFFVSLDKFKQFIARKWKIPPDQLLILLPYGNKLKPSMFKELLINRSFTLNDFYVYDRRLFSLVSKPTPTNLLTSKDSNPMNSPNSNDLTETLEYLIKNSHISQYQGSDTIMIKPMPSPLEDADVDLSRLNYHSVTSLLTTNLGWLSALEIDVHYFKSLIPDIIAHIKRIFDGLTVCSQYLKLYCFDVESLYNSNVQFLNQLVDNGMTSKWEKCFNDTLSKLTALEGDSLQKFINIESLLENEKSVKILNHSINGKLNKIKREIDENASFRDIITVNIDRLRQMFTPNESKFELEDQMAESFEVLVSEMRTRSRNVLDKEEEEFNSQEFLKSMNVMLEKDKKESVKTLFTISQALYSQIGELIDLKKSLQKHAVAILGNIAFTQMEILGIKRLLLNECNKDLELYKKYEVEFAQVEDLPLIYGLYLIEKYRRLSWFQQILSFISNFNQDLELFKQNELRTRNKWVKNFGSIATVFCEDLLSSSDFKRLNEYHSHTSPPNEDEEDENENSIANYRQDLVKVSQAIDNYMTQIKETDVSEPIIDLLSKTLFETKRFHIIYSNFKNNNNNSSNGNSISPEGSIALKSDDVVKGYKTRIKKLESLLHEFQYSDIGHWPQGVLNTHLKPFRGSATSINKKKFLGASVLLEPANISEVNIDSVSQANNHQIQELESNVDDLLHQLQLLKEENNRKSMQISEMGKKISDLEVEKTAYRETLTNLNQELARLTNEEQSHRTEIFTLNASFKKQLNDIISQDNEKIEKLTGDYDDVSKSRERLQMDLDESNKKHEQEVNLLKADIERLGKQIVTSEKSYAETNSSSMEKGEKFETIPLAEDPGRENQISAYTQTLQDRIFDIISTNIFILENIGLLLTFDNNNNIQIRRVKGLKKGTAQSNILDESTQMLDAHDNSLIKSPVFQKLKDEYELIKSVANGSEKDTQQSIFLGNITQLYDNKLYEVAVIRRFKDIETLAKKLTKENKIKRTLLERFQREKVTLRNFQIGDLALFLPTRENVNSVGSMSSSTSSLSSSFSSVDLSTPPPLDAMSIQSSPSVIHSNVINQASISGRDKNKLMRPWAAFTAFEESTRYFLKDEKGLTKGKEWFVGRIVTLEHFVADSPSNNPFRLPKGSVWFQVTAVVVSYQGV
modifications: Atto565 label in the GUV experiments
notes: N-terminal residual glycine-proline from PreScission protease digestion; Atg11, yeast; expressed from pCoofy37-Atg11; measured molecular weight 136 kDa; also called His-tagged Atg11; Atg11^Atto565; source: E. coli BL21 (DE3), coexpressed with chaperones from pG-KJE8, purified (Ni-NTA, PreScission digestion, gel filtration); not shown: His6, C-terminal, kept

How the values were obtained:
[1] = target: B2; test: cross-linking; Sulfo-LC-SDA (spacer arm 12.5 Å) conjugated to primary amines of Atg32^SE, mixed with Atg11, 365 nm UV light for up to 15 min, SDS-PAGE; details: both partners purified
[2] = target: T1, Atg9^core reconstituted in proteoliposomes (yeast, UniProt Q12142 281-779); test: co-floatation with proteoliposomes; Atg9-PLs mixed with one interaction partner in a Nycodenz step gradient, ultracentrifugation, floated fraction on SDS-PAGE; SUVs lacking Atg9^core as control; details: both partners purified
T1 construct: Atg9 core, yeast; Liposomes: 20 mol% cholesterol, 10 mol% POPE, 60 mol% POPC, 10 mol% POPS; protein:lipid 1:200; also called Atg9-PLs; Atg9 vesicles; source: reconstituted in liposomes by rapid dilution
T1 sequence (looked up): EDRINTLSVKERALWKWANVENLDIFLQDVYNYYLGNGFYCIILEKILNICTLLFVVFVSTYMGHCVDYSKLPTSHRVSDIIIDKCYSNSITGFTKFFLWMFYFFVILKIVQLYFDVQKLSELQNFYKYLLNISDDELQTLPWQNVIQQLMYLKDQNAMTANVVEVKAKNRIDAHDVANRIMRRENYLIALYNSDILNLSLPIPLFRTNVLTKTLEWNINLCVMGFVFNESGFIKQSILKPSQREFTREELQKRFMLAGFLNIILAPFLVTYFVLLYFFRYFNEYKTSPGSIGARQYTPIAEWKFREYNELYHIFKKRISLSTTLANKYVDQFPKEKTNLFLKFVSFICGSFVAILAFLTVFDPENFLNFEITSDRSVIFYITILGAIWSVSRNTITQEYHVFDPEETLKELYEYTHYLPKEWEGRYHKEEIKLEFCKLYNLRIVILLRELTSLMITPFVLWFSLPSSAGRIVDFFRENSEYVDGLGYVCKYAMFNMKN

[3] = target: the molecule itself; test: AUC; sedimentation velocity of purified Atg11-His6, analysed with SEDFIT; also at 1.63 mg/ml and 0.15 mg/ml

Binder | binding result [1] | stoichiometry N [2] | stoichiometry N [3]
B1 | binds |  | 
B2 |  | 1 | 2

Source: paper PMC6687201, “Atg11 tethers Atg9 vesicles to initiate selective autophagy” (PLoS Biology, 2019)
